Data published in the DeepSol protein solubility set.

Test: soluble on expression in E. coli; label from the status in PepcDB or PDB records

Row | Sequence | soluble on expression in E. coli
1 | MAHHHHHHMKNVKVELDGKVYTILYEPKKVKFSDLDPLKIMFHSNHVKHSGNSVIRYLVKLTSRDISKMDYVVRHVDISYDRPLKYEDSYKIIGGITSYGSTSLRITLFGTNSSSKNGCSSNLGVKNILRNGACAHVDEAAKPEEGHEKASSSGEFKSEHSEVATRRDPNKKATKSDHHVEKLLAKYKEDNADAVIKLCRNKMNEIASQKHCINYFTAHYTLVRVNKEGAKEPIQEKYKNEFPPIEVEKLKELVSVFC | not soluble
2 | MRLIVVGIAEDITEKKQLETELQRLATTDVLTQSSNRRHFFECANREFEQARLQGSSLAFLLLDIDDFKVINDTYGHPEGDIVLQRIAESGRAALRRGDLFGRIGGEEFAAVFPGCTADMARQVAERLQREIQRQNFSHQGQTFTITVSQGLTGLLAEDESLDNLFARADSAMYEAKRQGKNRIITGLEHHHHHH | not soluble
3 | MGSDKIHHHHHHVSDLLSQDEIDALLHGVDDVDDDDDLDAASQDARSYDFSSQDRIVRGRMPTLEIVNERFARHLRISMFNMMRRAAEVSINGVQMLKFGEYVHTLFVPTSLNMVRFSPLKGTALITMEARLVFILVDNFFGGDGRFHAKIEGREFTPTERRIVQLLLKIIFEDYKDAWAPVMDVEFDYLDSEVNPAMANIVSPTEVVVINSFHIEVDGGGGDFHITMPYSMIEPIRELLDAGVQSDKQDTDMRWSQALHDEIMDVKVGFDACVVEHELTLKDVMNFKAGDIIPVELPEYIMMKIEDLPTYRCKMGRSRDNLALKIYEKIPRPETVKTELQLVTRKGKARDISEL | not soluble
4 | MDNAHTPPFAGLTPDAILDAVESLGLRASGSLLALNSYENRVYQVGLDDAAPLVAKFYRPARWSDAAILEEHAFSLQLAEREIPAVPPLAFGGRTLHGHGGFRFALFERRGGRVPELDRDETLQWVGRFLGRIHALGRTEGYRHRPTLDMQSFGREPVDFVLGGGWLPPELEAVYRGVAEQALQGVARCFERAGPVAQLRLHGDCHVGNLLWTDAGPHFVDFDDSRMGPAVQDLWMLLSGERAEQSRQLGEVLAGYEDFCEFDLRELNLLEALRTLRLLHYSAWLARRWHDPAFPAAFPWFGAPRYWEEQILALREQIALMDEPPLWSCLEHHHHHH | not soluble
5 | MGSDKIHHHHHHMSQATAKVNREVQAFLQDLKGKTIDHVFFVACGGSSAIMYPSKYVFDRESKSINSDLYSANEFIQRNPVQLGEKSLVILCSHSGNTPETVKAAAFARGKGALTIAMTFKPESPLAQEAQYVAQYDWGDEALAINTNYGVLYQIVFGTLQVLENNTKFEQAIEGLDQLQAVYEKALKQEADNAKQFAKAHEKESIIYTMASGANYGVAYSYSICILMEMQWIHSHAIHAGEYFHGPFEIIDESVPFIILLGLDETRPLEERALTFSKKYGKKLTVLDAASYDFTAIDDSVKGYLAPLVLNRVLRSYADELAEERNHPLSHRRYMWKVEY | not soluble
6 | MNVSFSTSSLSVSNSRTRLISFRETEHGDQKSSEEWKTSTKLEALGSMEGELAHLLSTCKPETLNHNKTELSGFRNLFARFLRAKPTVDWSKIEPLPEGAIRPYKSLGHVVDKELIASQLRKLVVVKLNGGLGTSMGCKGPKSVISVRNDLTFLDLTMQQIQTLNKTYGVDVPLVLMNSFNTNEDTQKVLKKYANVKVSVHTFSQSQYPRINRETLLPIVKSLEADDNECWYPPGHGNFYEAFHNSGLLDKFLADGKEYCFLSNIDNMGATVDLSILNFVLNPSPDQTAPEFLMEVTDKTRADVKGGTLIQYEGRLMLLEIAQVPKDYVDEFKSISKFRIFNTNNLWAKLDAMRKIVVENKLEMEVIVNPKHLDRGLDVIQLETAAGAAIKSFSGAVGVNVPRSRFLPVKKTSDLLLLMSNLYDIDNGSLTLSHQRSFPTTPLVKLGSSFDKVKDYLGRFNGIPDLLELDHLTVSGDVWFGKDVSLKGTVIIIANHGDRIDIPPGSILENKIVSGNLRILEH | not soluble
7 | MVRKVLIIGGGFSGMAAAIQMRKAGIDVDLVEIDPNWRPEGAGITVNGPTLRALETIGVFDEFARRGFTSSGVDLFTPTGQKIGEIPTPKVAGSDVPGGGGIMRPELGRILADATRGSDVSVRVGCTYTAIEQTGDQVTVAFTDGTTDTYDLVVAADGVHSKTRERFFPEVKPPQYIGQGVWRTVLPRPAEIVRPRMWLGGTVKVGVNPVSQTHLYMFITEARPEKTNLDPATFPDLVTSMLKSFPDPIVQSLIPHVFAAEAAIDYRPLANLLVPAPWNRGRVILIGDTVAATTPHLASGAGIGIESGIILAEELAKAATLQDAFDGFHARRWERCRMVIENSERLCRIEMENGDKAEHARIMRESVMALTQPILEHHHHHH | soluble
8 | MAHHHHHHMEDDFHVDEEYIKQLSEKYKNAEHPLFMDELPANIEENEDLHALYNLMIDDEDELSLAKNFKQVGNDYYQDGTKYFEDAIISYTKGIDILTKYWEDKNLEKRKAERGKLRNDSNSSPTEGTKSNAQNVSSQRISNGVSIENGESTAGEEAGKPAVKGDSTSSRKGTEITVLNGLHNEGGHRDDLRDNEIRGVLADLHCNRAIVHYKKKRYVKCLQDCRKAYAFNQTKFKSVYYSILCSYHLELYKDAHMYVNRFEDMTKSIDLKNHINLNEYEKMKEIIFKKDEDILERKKVDQNEKRKAEENEKNVANLVQDILHKRNIQMVENVYQQGNNVIPVLYVDTSMYIHFTVFLLYFERAIMETIIDFAENQSIMDHYDIVKKNKNNHLLFCYIEFPYDVFFMIHSSSYICDVLNRAKLFSPILSIHIIENEEANRQFRSGKTIKSIPL | not soluble
9 | STPSIVIASAARTAVGSFNGAFANTPAHELGATVISAVLERAGVAAGEVNEVILGQVLPAGEGQNPARQAAMKAGVPQEATAWGMNQLCGSGLRAVALGMQQIATGDASIIVAGGMESMSMAPHCAHLRGGVKMGDFKMIDTMIKDGLTDAFYGYHMGTTAENVAKQWQLSRDEQDAFAVASQNKAEAAQKDGRFKDEIVPFIVKGRKGDITVDADEYIRHGATLDSMAKLRPAFDKEGTVTAGNASGLNDGAAAALLMSEAEASRRGIQPLGRIVSWATVGVDPKVMGTGPIPASRKALERAGWKIGDLDLVEAAEAFAAQACAVNKDLGWDPSIVNVNGGAIAIGHPIGASGARILNTLLFEMKRRGARKGLATLCIGGGMGVAMCIESL | soluble
10 | GAKDSTVQTSISVENVLERAGDSTPFSVALESIDAMKTIEEITIAGSGKASFSPLTFTTVGQYTYRVYQKPSQNKDYQADTTVFDVLVYVTYDEDGTLVAKVISRRAGDEEKSAITFKPKRLVKPIPPRQPDFPKTPLPLA | soluble
11 | MGSDKIHHHHHHMLEGKVAVVTGGGQGIGAAIAQLFAENGMKVVIAEIDEEAGVEREEMLRERGLDVTFVKTDVADENSVKNMVRKTVEIYGGVDVLVNNAAVMSVKSIFERPLEEWERVIRVNLTGPYICSRYCAEEMIKRGGGVIINIASTRAFQSEPDTEPYSASKGGLVALTHSLAVSLSRYHIRVVSISPGWIETSEWKKKSLRKKPDLRPIDHEQHPAGRVGNPLDIAHLCVFLADDEKAGFITGTNFIVDGGMTVKMIYEE | not soluble
12 | VAASWREQFIRAEQTHWDAVTETASETYWEGGVLSDVTALAPDPATLFISNSMPIRDMDRFGGPRDADLTVLGNRGASGIDGITSTALGAGSATSDPLVLVTGDLAYYHDMNGLLALGRCAVDATVVLLNNDGGGIFHMLPIEDHPTFEDQFRTPHGLDFEPTEALYSLQFERVADRRQFRERFAESVQTDGTQVIEVRFDAGDSHAVRDQLTE | not soluble
13 | MGSDKIHHHHHHMTVEYTASDLATYQNEVNEQIAKNKAHLESLTHPGSKVTFPIDQDISATPQNPNLKVFFFDIDNCLYKSSTRIHDLMQQSILRFFQTHLKLSPEDAHVLNNSYYKEYGLAIRGLVMFHKVNALEYNRLVDDSLPLQDILKPDIPLRNMLLRLRQSGKIDKLWLFTNAYKNHAIRCLRLLGIADLFDGLTYCDYSRTDTLVCKPHVKAFEKAMKESGLARYENAYFIDDSGKNIETGIKLGMKTCIHLVENEVNEILGQTPEGAIVISDILELPHVVSDLF | not soluble
14 | MEYIYASLLLHSAKKEISEDALKNVLTAAGISVDEVRLKAVVAALKEVNIDEVLKNAAAMPVAVAAQPQATQAQPAAEEKKEEKKEEEKKGPSEEEIASGLASLFGLEHHHHHH | not soluble
15 | MSLSTVISSEASNYDHWAWLYNHTLGPRYSEQKIAPLARAVLSQLPNGASVLDLCCGTGHLAKLMADRGYAVTGLDGSQDMINHARGNAPDLEFVLGDARDFTFEQPFDGVVCTSASLNHIQNTEDLRKVFSSVRRCLKDEGIFAFDINHPGQMARYWRDVPAEGELTDDYAWLITPRYNSQSNEGSFTVEIHTRPKAARFSLAEAAYRLAARLLSNRRRLALIARFGIPGNNWERHSVTNPVWGHDLDTVTELLRASGFSVKMRSTDGGPVTDERAVYFLCTKIAGDRAGQEVTKEAVEEGHHHHHH | soluble
16 | MHISEVKTAFKIADVEYVKDSTKLNFNYLKDLKDENNQPLSQNILTQNVARVYLIVVNGEIKKIGGSQADGGIKSTLNIYKDGGVKGRPNIRSFGVWYFLYHTILTGAKIEFYMIYQPNFETQVKGLFGFCAIKDASISYKLLEQACLTDYRNNSNDALPEWNVQEQGKD | not soluble
17 | MSLLITRFIADHQGHREGPDGLRWGVESICTQLTELGVPIAPSTYYDHINREPSRRELRDGELKEHISRVHAANYGVYGARKVWLTLNREGIEVARCTVERLMTKLGLSGTTRGKARRTTIADPATARPADLVQRRFGPPAPNRLWVADLTYVSTWAGFAYVAFVTDAYARRILGWRVASTMATSMVLDAIEQAIWTRQQEGVLDLKDVIHHTDRGSQYTSIRFSERLAEAGIQPSVGAVGSSYDNALAETINGLYKTELIKPGKPWRSIEDVELATARWVDWFNHRRLYQYCGDVPPVELEAAYYAQRQRPAEGHHHHHH | not soluble
18 | MYLSHFGLEQLPFHLTPDTELFLGLAPHFEAIQTLSAAIEMGEGVSKLTGEVGTGKTMVCRMLLTHLGDEVALIYLPNPMLSGEELRQAVAAELQLDVASPVRVVEQIQTRLIELHQQGKRVVALVDEAQALSDEALETLRLFGNLETEQTKLLQIVLIGQPELDVRLAQHHLRQFRQRITFNANLRPLTQAETEVYIESRLQKAQAPYPLFNATLKKAVWRASQGIPRLINQICHKALLLAWHEQSPLVNQHHLFAAIHDTYDSCKPRFKTPILWGWSKP | not soluble
19 | MELGKQRPVVYVVSDSVGETAELVVKAAASQFSGAGIEVRRIPYVEDKETVDEVIQLAKQADAIIAFTLVVPGIRTYLLEKATEAKVETVDIIGPMLEKISSLTKEEPRYEPGIVYRLDEDYFRKVEAIEFAVKYDDGRDPRGIVRADLVLIGVSRTSKTPLSQYLAHKRLKVANVPLVPEVEPPEELFKLSPKKVIGLKISPEQLNGIRAERLKTLGLKSQANYANIDRIKEELAYAEGIMKRIGCPVIDVSNKAVEETANLISSMFQKMAGDPLEHHHHHH | soluble
20 | MPRYLGLMSGTSLDGMDIVLIEQGDRTTLLASHYLPMPAGLREDILALCVPGPDEIARAAEVEQRWVALAAQGVRELLLQQQMSPDEVRAIGSHGQTIRHEPARHFTVQIGNPALLAELTGIDVVADFRRRDVAAGGQGAPLVPAFHQALFGDDDTSRAVLNIGGFSNVSLLSPGKPVRGFDCGPGNVLMDAWIHHQRGEHFDRDGAWAASGQVNHALLASLLADEFFAARGPKSTGRERFNLPWLQEHLARHPALPAADIQATLLELSARSISESLLDAQPDCEEVLVCGGGAFNTALMKRLAMLMPEARVASTDEYGIPPAWMEGMAFAWLAHRFLERLPGNCPDVTGALGPRTLGALYPA | not soluble
